Our source for the stoichiometry N (peptide per M^pro dimer) values is article PMC11535432.

The target of the assay is inactive mutant of SARS-CoV-2 main protease M^pro (His41Ala, Cys145Ala) (SARS-CoV-2). Description: native MS.

As to “substrate peptide nsp5/6 (11-mer, P6 to P5') (from UniProt P0DTD1 3564-3574)”, the stoichiometry N (peptide per M^pro dimer) was less than 2.
“substrate peptide nsp14/15 (11-mer, P6 to P5') (from UniProt P0DTD1 6447-6457)”: the stoichiometry N (peptide per M^pro dimer) was less than 2.
